9 molecules from patent US20080008707A1, “Denatured collagen peptides and uses thereof” (Cell-Matrix, Inc., priority 2006, published 2008) can be followed below.

Square brackets hold non-standard residues; d marks the D form. Ends that are not written are not given here. Hyp = O=C(O)[C@@H]1C[C@@H](O)CN1

One experiment has as its system D93. The experiment is described as follows: Peptide array screening ELISA: D93 binding to biotinylated synthetic collagen peptides. The settings on record: for MAB BINDING (OD450nM): D93 at 10 μg/mL, average of duplicate tests, secondary array, proline or hydroxyproline at each proline position; for binding activity by D93 (primary peptide array): 10 μg/mL D93, 16-mers with N-terminal biotin, 50% proline/hydroxyproline mixture at each proline. The procedure: The synthesis of short peptide arrays or single peptides was contracted to New England Peptide, Gardner, Mass. A peptide array (primary array) was initially constructed which corresponded to specific locations in the protein sequences that were identified in by N-terminal sequencing reactions as described above. The peptide array consisted of a 96-well microplate template containing individual, overlapping peptides (˜1 to 10 mg/well) corresponding to a contiguous sequence of the human collagen type alpha I chain (between residues G1,064 and T1,669) with an N-terminal biotin and 50% hydroxyproline or proline mixture for each proline residue, with a length of 16 amino acids and overlap of 10 amino acids with the adjacent protein sequence. Peptides were dissolved in 400 μL DMSO to achieve a stock peptide concentration of 2.5 to 25 mg/mL.
The ELISA assay described above was used screen peptides for D93 binding activity. Briefly, 100 μL of streptavidin at 10 μg/mL in PBS was coated onto 96-well microtiter plates from 12 to 18 hours at 2 to 8° C. Plates were blocked with 1% BSA/PBS as above. D93 was diluted to 10 μg/mL in 1% BSA/PBS, and 100 μL per well was added, in duplicate, as described above and incubated for 1 hour at room temperature. The secondary anti-human IgG-HRP, substrate development and plate reader steps were as described above. Peptides which were bound by D93 were further tested for inhibition of D93 binding to human heat-denatured-collagen IV using the ELISA described above. Peptides and D93 antibody were prepared at a 2× concentration in 1% BSA/PBS of the final test concentration and pre-mixed in 1.7 mL microfuge for 15 minutes prior to adding to the microplate wells.
A second peptide array was constructed based on permutations of the protein sequence (collagen IV alpha I chain residues 1337-1352, termed “peptide 40” of the primary array) in the primary array that reacted with D93. The secondary array consisted of individual peptides with either proline or hydroxyproline at each proline residue in the peptide PGAKGLPGPPGPPGPY (SEQ ID NO: 1).

Experiment [1] addresses dn-collagen or synthetic peptide (sensor chips with a low or medium density). The experiment can be described thus: SPR (Biacore), bivalent antibody binding, avidity model. For orientation: Surface plasmon resonance follows binding to a sensor surface in real time, without labels.
For experiment [2], the target named is human heat-denatured collagen type IV (human). The experiment can be described thus: SPR, low density denatured collagen IV surface, avidity model, CLAMP.
Sequence of human heat-denatured collagen type IV (human) (P08572 other isoform, or with tags, fused parts or gaps): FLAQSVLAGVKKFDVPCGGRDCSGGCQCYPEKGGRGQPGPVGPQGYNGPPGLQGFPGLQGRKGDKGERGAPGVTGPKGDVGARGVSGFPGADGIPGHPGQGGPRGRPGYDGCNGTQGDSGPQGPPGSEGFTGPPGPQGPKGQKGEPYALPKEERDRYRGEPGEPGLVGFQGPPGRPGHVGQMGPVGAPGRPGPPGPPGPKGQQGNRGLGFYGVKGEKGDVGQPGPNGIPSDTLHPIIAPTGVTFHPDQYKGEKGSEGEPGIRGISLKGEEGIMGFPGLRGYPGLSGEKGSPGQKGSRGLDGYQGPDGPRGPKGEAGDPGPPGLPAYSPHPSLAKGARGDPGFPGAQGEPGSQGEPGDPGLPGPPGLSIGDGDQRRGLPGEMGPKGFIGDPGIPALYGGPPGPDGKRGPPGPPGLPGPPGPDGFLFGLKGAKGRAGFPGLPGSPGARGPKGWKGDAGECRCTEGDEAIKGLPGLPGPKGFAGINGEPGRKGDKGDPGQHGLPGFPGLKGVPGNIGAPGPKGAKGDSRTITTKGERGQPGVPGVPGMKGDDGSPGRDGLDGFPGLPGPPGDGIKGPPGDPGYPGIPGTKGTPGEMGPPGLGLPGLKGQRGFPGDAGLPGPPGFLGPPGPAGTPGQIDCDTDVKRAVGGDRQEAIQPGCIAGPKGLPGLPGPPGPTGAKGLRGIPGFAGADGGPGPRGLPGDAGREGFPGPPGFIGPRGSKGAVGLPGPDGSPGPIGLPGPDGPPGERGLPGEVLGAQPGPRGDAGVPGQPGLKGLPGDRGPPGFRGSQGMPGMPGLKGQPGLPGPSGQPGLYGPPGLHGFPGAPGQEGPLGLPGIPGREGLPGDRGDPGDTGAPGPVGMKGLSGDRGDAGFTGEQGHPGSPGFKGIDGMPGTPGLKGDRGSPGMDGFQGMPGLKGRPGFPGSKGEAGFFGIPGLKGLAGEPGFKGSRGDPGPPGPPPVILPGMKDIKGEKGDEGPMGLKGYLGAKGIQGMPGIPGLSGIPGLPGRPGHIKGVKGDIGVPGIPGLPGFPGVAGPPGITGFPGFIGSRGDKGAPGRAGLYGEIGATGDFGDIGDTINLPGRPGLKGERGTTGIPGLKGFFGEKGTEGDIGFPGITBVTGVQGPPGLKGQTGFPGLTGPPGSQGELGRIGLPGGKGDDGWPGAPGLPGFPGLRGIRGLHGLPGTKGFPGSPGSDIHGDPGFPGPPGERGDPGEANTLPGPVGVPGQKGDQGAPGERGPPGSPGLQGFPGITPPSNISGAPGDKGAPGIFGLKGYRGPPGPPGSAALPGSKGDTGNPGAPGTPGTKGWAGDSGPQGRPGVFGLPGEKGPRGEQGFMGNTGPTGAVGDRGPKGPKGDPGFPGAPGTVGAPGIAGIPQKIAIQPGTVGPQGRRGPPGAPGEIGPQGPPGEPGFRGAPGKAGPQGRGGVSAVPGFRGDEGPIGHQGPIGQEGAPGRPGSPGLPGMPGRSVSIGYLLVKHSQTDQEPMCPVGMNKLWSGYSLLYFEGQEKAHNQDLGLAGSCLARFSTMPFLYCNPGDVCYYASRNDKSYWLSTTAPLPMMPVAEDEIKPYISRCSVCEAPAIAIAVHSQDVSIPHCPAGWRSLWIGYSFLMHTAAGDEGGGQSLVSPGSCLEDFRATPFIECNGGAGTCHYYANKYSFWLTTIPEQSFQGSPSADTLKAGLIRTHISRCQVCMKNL
Experiment [3] has the same target. The experiment can be described thus: SPR, high density denatured collagen IV surface, avidity model, CLAMP.
The target is the same in experiment [4]. The experiment is described as follows: SPR, medium density denatured collagen IV surface, avidity model, CLAMP.
The target is the same in experiment [5]. The experiment is described as follows: SPR (Biacore), low density dn-collagen on CM5 chip, monomeric (one Fab region) binding.
Experiment [6] shares this target. The experiment is described as follows: SPR (Biacore), high density dn-collagen on CM5 chip, monomeric (one Fab region) binding.
The target of experiment [7] is biotinylated synthetic collagen peptide α1(IV) P1337-Y1352 (human). The experiment can be described thus: SPR (Biacore), low density biotinylated peptide on streptavidin chip, monomeric D93 Fab.
The target is the same in experiment [8]. The experiment can be described thus: SPR (Biacore), high density biotinylated peptide on streptavidin chip, monomeric D93 Fab.
Experiment [9] concerns the target human heat-denatured collagen type IV (human). The experiment is described as follows: SPR (Biacore), medium density dn-collagen on CM5 chip, monomeric (one Fab region) binding.
The target of experiment [10] is biotinylated synthetic collagen peptide α1(IV) P1337-Y1352 (human). The experiment can be described thus: SPR (Biacore), medium density biotinylated peptide on streptavidin chip, monomeric D93 Fab.
Experiment [11] shares this target. The experiment can be described thus: SPR, high density biotinylated peptide surface on streptavidin, avidity model, CLAMP.
Experiment [12] shares this target. The experiment can be described thus: SPR, medium density biotinylated peptide surface on streptavidin, avidity model, CLAMP.
For experiment [13], the target named is human heat-denatured collagen type IV (human). The experiment is described as follows: SPR, low density denatured collagen IV surface, avidity model (second binding step), CLAMP.
For experiment [14] the target is unchanged. The experiment can be described thus: SPR, high density denatured collagen IV surface, avidity model (second binding step), CLAMP.
Experiment [15] has the same target. The experiment can be described thus: SPR, medium density denatured collagen IV surface, avidity model (second binding step), CLAMP.
The target of experiment [16] is biotinylated synthetic collagen peptide α1(IV) P1337-Y1352 (human). The experiment is described as follows: SPR, low density biotinylated peptide surface on streptavidin, simple 1:1 interaction model, CLAMP.
The target is the same in experiment [17]. The experiment is described as follows: SPR, high density biotinylated peptide surface on streptavidin, avidity model (second binding step), CLAMP.
Experiment [18] shares this target. The experiment is described as follows: SPR, medium density biotinylated peptide surface on streptavidin, avidity model (second binding step), CLAMP.
The target in experiment [19] is denatured collagen type-I (human) (UniProt P02452). The experiment can be described thus: ELISA. Background: An ELISA detects its analyte on a solid surface through an enzyme-linked reagent.
Sequence of UniProt P02452 (P02452 21-1464 V1081A/Q1391K, chain 1 of 2): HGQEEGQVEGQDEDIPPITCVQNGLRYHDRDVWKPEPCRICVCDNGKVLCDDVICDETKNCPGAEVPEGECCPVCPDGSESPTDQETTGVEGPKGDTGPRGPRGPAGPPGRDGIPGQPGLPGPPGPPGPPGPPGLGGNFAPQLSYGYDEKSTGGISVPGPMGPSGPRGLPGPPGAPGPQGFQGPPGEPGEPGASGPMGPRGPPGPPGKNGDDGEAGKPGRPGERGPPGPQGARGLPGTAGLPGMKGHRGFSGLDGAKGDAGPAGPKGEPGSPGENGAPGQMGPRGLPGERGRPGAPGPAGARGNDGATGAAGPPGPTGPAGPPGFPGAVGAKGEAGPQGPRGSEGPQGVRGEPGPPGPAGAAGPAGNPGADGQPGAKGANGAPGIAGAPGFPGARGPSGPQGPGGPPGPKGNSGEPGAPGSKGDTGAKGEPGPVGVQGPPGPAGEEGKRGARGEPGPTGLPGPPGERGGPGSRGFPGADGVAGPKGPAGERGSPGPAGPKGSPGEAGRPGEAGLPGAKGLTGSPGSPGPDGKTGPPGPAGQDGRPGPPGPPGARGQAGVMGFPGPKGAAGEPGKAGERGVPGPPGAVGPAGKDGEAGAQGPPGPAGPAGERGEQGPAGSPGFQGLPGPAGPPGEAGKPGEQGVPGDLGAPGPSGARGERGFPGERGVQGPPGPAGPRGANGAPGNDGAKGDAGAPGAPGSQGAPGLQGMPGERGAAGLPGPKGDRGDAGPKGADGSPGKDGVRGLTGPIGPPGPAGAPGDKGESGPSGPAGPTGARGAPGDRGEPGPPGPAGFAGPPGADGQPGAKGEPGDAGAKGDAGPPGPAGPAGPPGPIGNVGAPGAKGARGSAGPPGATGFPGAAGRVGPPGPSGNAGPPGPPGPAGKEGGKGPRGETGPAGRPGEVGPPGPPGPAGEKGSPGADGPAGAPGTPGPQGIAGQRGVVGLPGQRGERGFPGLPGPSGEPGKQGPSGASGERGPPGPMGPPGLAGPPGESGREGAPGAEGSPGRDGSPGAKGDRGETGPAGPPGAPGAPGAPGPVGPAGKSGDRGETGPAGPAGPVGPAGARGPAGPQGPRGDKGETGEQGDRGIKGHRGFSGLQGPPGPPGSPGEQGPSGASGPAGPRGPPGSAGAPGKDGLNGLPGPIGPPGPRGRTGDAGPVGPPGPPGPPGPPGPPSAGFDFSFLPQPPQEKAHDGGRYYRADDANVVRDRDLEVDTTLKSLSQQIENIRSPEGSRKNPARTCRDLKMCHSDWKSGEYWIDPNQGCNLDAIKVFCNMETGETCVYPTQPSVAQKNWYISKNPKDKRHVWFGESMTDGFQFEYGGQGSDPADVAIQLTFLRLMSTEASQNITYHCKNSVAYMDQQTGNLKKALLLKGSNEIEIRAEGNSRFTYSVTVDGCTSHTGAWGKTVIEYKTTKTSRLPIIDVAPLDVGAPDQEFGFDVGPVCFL
Sequence of UniProt P02452 (P02452 other isoform, or with tags, fused parts or gaps, chain 2 of 2): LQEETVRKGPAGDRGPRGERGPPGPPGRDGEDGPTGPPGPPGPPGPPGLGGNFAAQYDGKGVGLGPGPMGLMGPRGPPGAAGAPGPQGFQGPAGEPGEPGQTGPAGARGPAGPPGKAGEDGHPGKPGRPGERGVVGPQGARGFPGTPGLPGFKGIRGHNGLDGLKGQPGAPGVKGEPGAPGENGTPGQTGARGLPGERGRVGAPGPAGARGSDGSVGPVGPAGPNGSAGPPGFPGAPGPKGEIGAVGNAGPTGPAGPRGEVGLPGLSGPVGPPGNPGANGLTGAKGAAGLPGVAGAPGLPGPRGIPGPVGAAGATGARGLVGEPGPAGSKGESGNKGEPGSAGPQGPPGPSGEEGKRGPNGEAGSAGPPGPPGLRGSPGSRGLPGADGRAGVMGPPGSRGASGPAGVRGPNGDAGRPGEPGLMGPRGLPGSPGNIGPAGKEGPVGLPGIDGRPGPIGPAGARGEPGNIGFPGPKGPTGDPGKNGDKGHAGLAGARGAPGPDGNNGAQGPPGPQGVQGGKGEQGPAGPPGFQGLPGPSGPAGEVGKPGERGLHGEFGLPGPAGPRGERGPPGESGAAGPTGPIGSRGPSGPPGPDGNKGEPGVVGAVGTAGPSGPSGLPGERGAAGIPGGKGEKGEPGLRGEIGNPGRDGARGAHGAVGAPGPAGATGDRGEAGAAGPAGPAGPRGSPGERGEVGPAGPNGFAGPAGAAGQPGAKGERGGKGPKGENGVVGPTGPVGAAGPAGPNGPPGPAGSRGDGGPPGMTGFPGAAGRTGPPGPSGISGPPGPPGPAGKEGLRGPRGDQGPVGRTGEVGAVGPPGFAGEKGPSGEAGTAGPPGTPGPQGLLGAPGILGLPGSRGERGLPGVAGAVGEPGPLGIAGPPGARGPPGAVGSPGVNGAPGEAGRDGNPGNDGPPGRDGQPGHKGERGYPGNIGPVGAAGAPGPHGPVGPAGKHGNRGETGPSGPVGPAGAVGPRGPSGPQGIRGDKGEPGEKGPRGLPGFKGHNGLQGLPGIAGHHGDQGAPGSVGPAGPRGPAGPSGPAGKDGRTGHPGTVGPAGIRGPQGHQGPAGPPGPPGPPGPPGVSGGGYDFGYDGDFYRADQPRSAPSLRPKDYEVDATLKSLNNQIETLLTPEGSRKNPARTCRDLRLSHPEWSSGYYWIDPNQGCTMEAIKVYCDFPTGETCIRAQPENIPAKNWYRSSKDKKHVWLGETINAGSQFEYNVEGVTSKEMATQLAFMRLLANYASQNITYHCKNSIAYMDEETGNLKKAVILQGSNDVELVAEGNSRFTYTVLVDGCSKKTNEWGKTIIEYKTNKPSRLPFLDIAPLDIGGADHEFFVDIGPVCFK
Experiment [20] has as its target human heat-denatured collagen type IV (human). The experiment can be described thus: ELISA.
A further experiment has as its target denatured collagen III. The experiment can be described thus: ELISA (data not shown).
The next experiment addresses denatured collagen V. The experiment is described as follows: ELISA (data not shown).
Experiment [21] concerns the target human heat-denatured collagen type IV (human). The experiment is described as follows: ELISA (data not shown).
Experiment [22] addresses denatured collagen type-I (human) (UniProt P02452). The experiment can be described thus: cell-based or functional assay.
In experiment [23] the target is human heat-denatured collagen type IV (human). The experiment can be described thus: ELISA, wells coated with human heat-denatured collagen IV, anti-mouse IgM-HRP, read at 450 nm.
Experiment [24] addresses HUI77, murine IgM anti-denatured-collagen monoclonal antibody. The experiment can be described thus: competition ELISA on coated dn-collagen IV.
Experiment [25] deals with D93, recombinant humanized IgG1 kappa antibody targeting denatured-collagen. The experiment is described as follows: competition ELISA on coated human dn-collagen IV.
Sequence of D93, recombinant humanized IgG1 kappa antibody targeting denatured-collagen (heavy, as listed by the source, chain 1 of 2): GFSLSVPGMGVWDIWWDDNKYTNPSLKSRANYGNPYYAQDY
Sequence of D93, recombinant humanized IgG1 kappa antibody targeting denatured-collagen (light, as listed by the source, chain 2 of 2): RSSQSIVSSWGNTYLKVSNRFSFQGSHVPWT
In experiment [26] the target is HUI77, murine IgM anti-denatured-collagen monoclonal antibody. The experiment is described as follows: competition ELISA on coated dn-collagen IV; * separate assay.
Experiment [27] addresses D93, recombinant humanized IgG1 kappa antibody targeting denatured-collagen. The experiment can be described thus: competition ELISA on coated human dn-collagen IV; * separate assay.

Turning to 1 (PGAKGLPGPPGPPGPY) [compound 1], the “MAB BINDING (OD450nM)” value in the experiment on D93 is 0.136 OD450nM.
For the molecule “13: peptide 13 of the primary collagen IV alpha 1 array: biotinylated 16-mer, 50% proline/hydroxyproline at each proline (PGAKGLPGPPGPPGPY; not fully specified; also: biotinylated, position not given here) [compound 13]”, in the experiment on D93, the “binding activity by D93 (primary peptide array)” value is “higher activity than the others” and the “MAB BINDING (OD450nM)” value is reported as 0.348 OD450nM.
“D93, recombinant humanized IgG1 kappa antibody targeting denatured-collagen”: the Kd in [1] is 0.03 to 0.063 µM; in [5] it was 10 µM; in experiment [6], 6.5 µM; in experiment [7] it was 11 µM; in [8] it was 1.3 µM; in experiment [9], 7.8 µM. Besides, the Kd in experiment [10] stood at 1.7 µM. Also, the koff in experiment [2] came out at 0.33 s⁻¹; in [3], 0.038 s⁻¹; in experiment [4], 0.21 s⁻¹; in [11], 0.057 s⁻¹; in [12] it was 0.1 s⁻¹; in experiment [16], 0.52 s⁻¹. The kon in experiment [2] stood at 32700 M⁻¹ s⁻¹; in experiment [3], 5800 M⁻¹ s⁻¹; in experiment [4] it was 26800 M⁻¹ s⁻¹; in experiment [11], 41900 M⁻¹ s⁻¹; in experiment [12], 57800 M⁻¹ s⁻¹; in experiment [16] it was 42800 M⁻¹ s⁻¹. The ka2 in experiment [13] came to 7.1e-06 RU s-1; in [14] it was 4.3e-06 RU s-1; in [15] it was 1.8e-06 RU s-1; in experiment [17], 6.6e-06 RU s-1; in experiment [18], 5.2e-06 RU s-1. Further, the kd2 in experiment [13] amounted to 0.00099 s⁻¹; in experiment [14], 0.0024 s⁻¹; in experiment [15], 0.0017 s⁻¹; in experiment [17], 0.014 s⁻¹; in experiment [18], 0.006 s⁻¹.
As for “HUI77, murine IgM anti-denatured-collagen monoclonal antibody”, the fold apparent reactivity, denatured over native collagen type-I in experiment [19] was greater than 10 fold. The molecule also showed a fold affinity, denatured over native collagen type-IV in [20] of 10 fold. Besides, the fold tighter binding, denatured over native form was determined as 7 fold with denatured collagen III, 10 fold with denatured collagen V and 8 fold in [21]. The molecule further came in with an inhibition of human endothelial cell adhesion to denatured collagen type-I in experiment [22] of 40%. This molecule also gave an inhibition of human endothelial cell migration on denatured collagen-I in experiment [22] of 80%. Further, the EC50 (read off the curve) in experiment [23] was 0.1 µg/mL.
As for “peptide 40: primary array peptide, collagen IV alpha I chain residues 1337-1352, 50% proline/hydroxyproline mixture; b687 equates it with SEQ ID NO: 2 (XGAKGLPGPXGPXGPY; not fully specified; X: randomised place (mixture))”, the “binding activity by D93 (primary peptide array)” value in the experiment with D93 is “higher activity than the others”.
In experiment [24], CTWPRHHTTDALL [non-collagen control peptide No. 6, … (SEQ ID NO: 39)] returned a % inhibition of HUI77 binding to dn-collagen IV, peptide 10 µM of 6.5%; a % inhibition of HUI77 binding to dn-collagen IV, peptide 100 µM of 6.5%; a % inhibition of HUI77 binding to dn-collagen IV, peptide 1000 µM of 6.5%. In experiment [25], the % inhibition of D93 binding to dn-collagen IV, peptide 1 µM was determined as 4.5%; the % inhibition of D93 binding to dn-collagen IV, peptide 10 µM stood at 1%; the % inhibition of D93 binding to dn-collagen IV, peptide 100 µM was 0%; the % inhibition of D93 binding to dn-collagen IV, peptide 1000 µM worked out at 3.5%. The molecule further came in with a % inhibition of HUI77 binding to dn-collagen IV, peptide 1000 µM in experiment [26] of 11.1%. The % inhibition of D93 binding to dn-collagen IV, peptide 1000 µM in [27] is 4.9%.
With LPGP[Hyp]GP[Hyp]G [synthetic peptide No. 20, … (SEQ ID NO: 21)], in experiment [24], the % inhibition of HUI77 binding to dn-collagen IV, peptide 10 µM is 6.5%; the % inhibition of HUI77 binding to dn-collagen IV, peptide 100 µM was 18%; the % inhibition of HUI77 binding to dn-collagen IV, peptide 1000 µM is 86%. Besides, in [25], the % inhibition of D93 binding to dn-collagen IV, peptide 1 µM was 13%; the % inhibition of D93 binding to dn-collagen IV, peptide 10 µM worked out at 35.5%; the % inhibition of D93 binding to dn-collagen IV, peptide 100 µM was determined as 85.5%; the % inhibition of D93 binding to dn-collagen IV, peptide 1000 µM was 92.5%.
Turning to LPGFPG (also: hydroxyproline marking, if any, lost) [synthetic peptide No. 24, LPGFPG (SEQ ID NO: 38)], in experiment [26], the % inhibition of HUI77 binding to dn-collagen IV, peptide 10 µM is 10.2%; the % inhibition of HUI77 binding to dn-collagen IV, peptide 100 µM amounted to 0%; the % inhibition of HUI77 binding to dn-collagen IV, peptide 1000 µM is 3.7%. For the same molecule, in [27], the % inhibition of D93 binding to dn-collagen IV, peptide 1 µM amounted to 5.4%; the % inhibition of D93 binding to dn-collagen IV, peptide 10 µM is 7.8%; the % inhibition of D93 binding to dn-collagen IV, peptide 100 µM worked out at 8.3%; the % inhibition of D93 binding to dn-collagen IV, peptide 1000 µM turned out to be 11.6%.
In [24], GP[Hyp]GP[Hyp]GPY [synthetic peptide No. 3, … (SEQ ID NO: 30)] came in with a % inhibition of HUI77 binding to dn-collagen IV, peptide 10 µM of 8.5%; a % inhibition of HUI77 binding to dn-collagen IV, peptide 100 µM of 12%; a % inhibition of HUI77 binding to dn-collagen IV, peptide 1000 µM of 78%. Besides, in experiment [25], the % inhibition of D93 binding to dn-collagen IV, peptide 1 µM turned out to be 33%; the % inhibition of D93 binding to dn-collagen IV, peptide 10 µM was determined as 82.5%; the % inhibition of D93 binding to dn-collagen IV, peptide 100 µM came to 94%; the % inhibition of D93 binding to dn-collagen IV, peptide 1000 µM was found to be 94%. Also, in experiment [26], the % inhibition of HUI77 binding to dn-collagen IV, peptide 100 µM stood at 0% and the % inhibition of HUI77 binding to dn-collagen IV, peptide 1000 µM was 63%. Besides, in experiment [27], the % inhibition of D93 binding to dn-collagen IV, peptide 10 µM was found to be 79.9% and the % inhibition of D93 binding to dn-collagen IV, peptide 100 µM is 90.3%.

For orientation: koff means a measure of how fast the partners let go of each other. Higher therefore signals a short-lived complex. In general, kon refers to the second-order rate constant of association. A low value points to slow association. Broadly, the EC50 (read off the curve) is the concentration needed to bring the measured effect to its halfway point.
